{"source": "patent US20130323264A1", "target": "monoclonal antibody against the N-terminal FERM domain of moesin", "experiment": "cell-based or functional assay"}
{"substance": "N-terminal FERM domain of human moesin protein (from UniProt P26038 1-297)", "values": [{"measurement": "CD62P FD (Mnx), platelet activation induced by anti-moesin N-terminal domain antibody, inhibitor N-terminal FERM domain", "value": "5.79 FD (Mnx)"}, {"measurement": "CD63 FD (Mnx), platelet activation induced by anti-moesin N-terminal domain antibody, inhibitor N-terminal FERM domain", "value": "6.3 FD (Mnx)"}, {"measurement": "PAIR, platelet aggregation induced by anti-moesin N-terminal domain antibody (2 µg/mL), inhibitor N-terminal domain (0.2 mM)", "value": 90.2, "unit": "%"}, {"measurement": "PAR (%), platelet aggregation induced by anti-moesin N-terminal domain antibody (2 µg/mL), inhibitor N-terminal domain (0.2 mM)", "value": 6.03, "unit": "%"}]}
